In patent US20170290876A1 (Novartis, published 2017):

T1: human VEGF (human, UniProt P15692 207-395, biotinylated (site not stated))
T1 construct: Biotinylated human VEGF generated internally; also called hVEGF; hVEGF-biotin
T1 sequence: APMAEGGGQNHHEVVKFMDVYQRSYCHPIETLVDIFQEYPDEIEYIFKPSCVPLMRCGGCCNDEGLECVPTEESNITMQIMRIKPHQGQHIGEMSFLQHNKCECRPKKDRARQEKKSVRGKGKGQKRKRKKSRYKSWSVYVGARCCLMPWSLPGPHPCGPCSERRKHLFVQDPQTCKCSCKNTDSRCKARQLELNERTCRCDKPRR


What was measured:
human VEGF [1] = target: T1, human VEGF; experiment: Biacore SPR, hVEGF
Procedure: (§1) At first, individual CDR residues were substituted and the affinity for hVEGF was measured by Biacore as described below. […] HC8T, and HC9T and the affinity of the resulting peptide-tagged Fab for both HA and hVEGF was measured by Biacore as described below (Table 17).
(§2) Affinity of optimized HA-binding peptide tags for HA and human VEGF were measured by Biacore. […] In order to determine target kinetics, two different formats were utilized. […] The second format is an anti-fab capture method in which the fab protein samples are captured and the target proteins flowed over at various concentrations.
(§3) The sample compartment which includes the analytes, ligands, and regeneration buffer, is kept at 15° C. All other running conditions were carried out at either 25° C. or 37° C. in 1×HBSE+P buffer. […] Data was collected at 10 Hz and analyzed using the Biacore T200 Evaluation Software (GE Healthcare®). This program uses a global fitting analysis method for the determination of rate and affinity constants for each interaction.

human VEGF [2] = target: T1, human VEGF; experiment: Biacore SPR, hVEGF (second row labelled Y32H)
Procedure: as §1, §2, §3

human VEGF [3] = target: T1, human VEGF; experiment: Biacore SPR, hVEGF (second row labelled Y32H); the sign of the exponent is misprinted (kd/KD of the same row = 4.9e6); second row labelled Y32H (r159), not r156
Procedure: as §1, §2, §3

human VEGF [4] = target: T1, human VEGF; experiment: Biacore SPR, hVEGF; the minus sign of the exponent is missing in print (kd/ka of the same row = 3.05e-12)
Procedure: as §1, §2, §3

human TNFα [5] = target: T2, human TNFα (human, UniProt P01375 77-233, biotinylated (site not stated)); experiment: Biacore SPR, TNFα-biotin, 37 C
T2 construct: also called TNFα-biotin; Hu TNFα-biotin

human TNFα [6] = target: T2, human TNFα; experiment: Biacore SPR, Hu TNFα-biotin, 37 C
human TNFα [7] = target: T2, human TNFα; experiment: Biacore SPR; affinity of NVS73T against untagged NVS73

T2 sequence (P01375 77-233 limits assumed): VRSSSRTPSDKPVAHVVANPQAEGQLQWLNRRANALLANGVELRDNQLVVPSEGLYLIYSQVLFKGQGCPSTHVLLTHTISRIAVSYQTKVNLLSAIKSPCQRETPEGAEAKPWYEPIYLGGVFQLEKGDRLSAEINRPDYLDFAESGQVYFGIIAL

| Kd (human VEGF [1]) [pM] | koff (human VEGF [1]) [s⁻¹] | kon (human VEGF [1]) [M⁻¹ s⁻¹] | Kd (human VEGF [2]) [pM] | koff (human VEGF [2]) [s⁻¹] | kon (human VEGF [3]) [M⁻¹ s⁻¹] | Kd (human VEGF [4]) [pM] | Kd (human TNFα [5]) [pM] | koff (human TNFα [5]) [s⁻¹] | kon (human TNFα [5]) [M⁻¹ s⁻¹] | Kd (human TNFα [6]) [pM] | koff (human TNFα [6]) [s⁻¹] | kon (human TNFα [6]) [M⁻¹ s⁻¹] | Fold improvement (human TNFα [7]) [fold] | Binder |
| --- | --- | --- | --- | --- | --- | --- | --- | --- | --- | --- | --- | --- | --- | --- |
| 20.4 | 0.000112 | 5.49e+06 | 169 | 0.000829 | 4.91e+06 |  |  |  |  |  |  |  |  | NVS4 heavy chain variant Y32H (Fab, V domains shown, CDR variant of NVS4; The label Y32H is printed in two rows (r156, r159) with different values) VH: EVQLVESGGGLVQPGGSLRLSCTASGFSLTDHYYMTWVRQAPGKGLEWVGFIDPDDDPYYATWAKGRFTISRDNSKNTLYLQMNSLRAEDTAVYYCAGGDHNSGWGLDIWGQGTLVTVSS VL: EIVMTQSPSTLSASVGDRVIITCQASEIIHSWLAWYQQKPGKAPKLLIYLASTLASGVPSRFSGSGSGAEFTLTISSLQPDDFATYYCQNVYLASTNGANFGQGTKLTVLK |
|  | 1.64e-05 | 5.37e+06 |  |  |  | 3.06 |  |  |  |  |  |  |  | NVS4 light chain variant E27Q (Fab, V domains shown, CDR variant of NVS4) VH: EVQLVESGGGLVQPGGSLRLSCTASGFSLTDYYYMTWVRQAPGKGLEWVGFIDPDDDPYYATWAKGRFTISRDNSKNTLYLQMNSLRAEDTAVYYCAGGDHNSGWGLDIWGQGTLVTVSS VL: EIVMTQSPSTLSASVGDRVIITCQASQIIHSWLAWYQQKPGKAPKLLIYLASTLASGVPSRFSGSGSGAEFTLTISSLQPDDFATYYCQNVYLASTNGANFGQGTKLTVLK |
|  |  |  |  |  |  |  | 0.742 | 2.47e-05 | 3.33e+07 | 0.742 | 2.47e-05 | 3.33e+07 | 35 | NVS73T (Fab, V domains shown, Anti-TNFα Fab with HA tag at heavy chain C-terminus) VH: EVQLVESGGGSVQPGGSLRLSCTASGFTISRSYWICWVRQAPGKGLEWVGCIYGDNDITPLYANWAKGRFTISRDTSKNTVYLQMNSLRAEDTATYYCARLGYADYAYDLWGQGTTVTVSS VL: EIVMTQSPSTLSASVGDRVIITCQSSQSVYGNIWMAWYQQKPGRAPKLLIYQASKLASGVPSRFSGSGSGAEFTLTISSLQPDDFATYYCQGNFNTGDRYAFGQGTKLTVLK |
